# Measured values from patent US20220090060A1 (Regeneron, published 2022).
# B1: mAb23 (antibody, V domains shown)
# VH: EVQLLESGGGLVQPGGSLRLSCAASGFTFSSYAMTWVRQAPGKGLEWVSTISGSGVSTYSADSVKGRFTISRDNSKNTLYLQMNSLRAEDTAVYYCALHWELLDAFDIWGQGTMVTVSS
# VL: EIVLTQSPGTLSLSPGERATLSCRASQSISYNYLAWYQQKPGQAPRLLIYGASSRASGISDRFSGSGSGTDFTLTISRLEPEDFVVYYCQQYGSSPLTFGGGTKVEVK
# Biological target: T1, hCD22.mmh (human, UniProt P20273 20-687)
# T1 construct: Analyte of the Biacore assay; also called Recombinant CD22; human CD22
# T1 sequence (looked up): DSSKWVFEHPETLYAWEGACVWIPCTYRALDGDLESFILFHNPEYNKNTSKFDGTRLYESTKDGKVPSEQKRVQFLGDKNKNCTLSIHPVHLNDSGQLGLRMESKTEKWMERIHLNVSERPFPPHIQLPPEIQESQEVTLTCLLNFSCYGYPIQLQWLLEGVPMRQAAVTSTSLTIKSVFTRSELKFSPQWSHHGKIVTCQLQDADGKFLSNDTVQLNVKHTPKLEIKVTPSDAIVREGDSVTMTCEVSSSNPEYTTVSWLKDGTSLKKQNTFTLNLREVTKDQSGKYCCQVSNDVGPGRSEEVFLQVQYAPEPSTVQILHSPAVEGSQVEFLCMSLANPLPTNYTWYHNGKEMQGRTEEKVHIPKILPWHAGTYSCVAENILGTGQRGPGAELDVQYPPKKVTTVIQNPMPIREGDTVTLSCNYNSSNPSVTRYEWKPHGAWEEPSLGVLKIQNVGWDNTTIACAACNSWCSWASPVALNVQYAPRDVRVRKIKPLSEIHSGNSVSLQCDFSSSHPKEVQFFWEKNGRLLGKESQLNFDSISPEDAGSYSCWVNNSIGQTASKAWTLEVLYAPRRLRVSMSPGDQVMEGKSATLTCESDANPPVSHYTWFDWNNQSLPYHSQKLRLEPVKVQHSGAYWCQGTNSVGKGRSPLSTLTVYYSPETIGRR
# Experiment: SPR (Biacore), mAb captured from CHO supernatant on anti-human Fc, 25C pH 7.4
binder,measurement,value
B1,Kd,160 nM
same,koff,0.0117 s⁻¹
same,kon,73200 M⁻¹ s⁻¹
same,t½,1 min
